# Data from the nanobody polyreactivity screen of Harvey et al. (2022).
# Assay: yeast display, Sf9 membrane polyspecificity reagent, FACS + sequencing; frameworks hold sequencing errors
# How it was run: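 Galactose induction of a Saccharomyces cerevisiae BJ5465 synthetic nanobody display library ran 36–48 hours. The cells were then stained for 1 hour at 4 °C with 10% biotinylated, detergent-solubilized Sf9 membrane reagent, pulled down on streptavidin microbeads and FACS-sorted into low and high (top ~1%) gates on expression and reagent-binding fluorescence. Labels for polyreactivity follow the gate of origin.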
row,Sequence,polyreactivity (PSR sort gate)
1,QVQLVESGGGLVQAGGSLRLSCAASGSIFSSYAMGWYRQAPGKERELVAAISSSGDSTYADSVKGRFTISRDNAKNTVYLQMNSLKPEDTAVYDCAVGGAGSDDYWGQGTQVTVSS,low polyreactivity
2,QVQLVESGGGLVQAGGSLRLSCAASGNTFYGYTMGWYRQAPGKERELVAAISSRGGSTYYADSVKGRFTISRDNAKNTVYLQMISLKPEDTAVYYCAAVRPVKKFPYCYWGQGTQVTVSS,high polyreactivity
3,QVQLVESGGGLVQAGGSLRLSCAASGFTFGEYAMGWYRQQPGKERELVAAISSSSGSTYYADSVKGRFTISRDNAKYTVYLQMNSLKPEDTAVYYCAATTSPRSARYYYWGQGTQVTVSS,high polyreactivity
4,QVQREESGGGLVQAGGSLRLSCVASGSTFRYYAMGWYRQSPGTERELVAAITWRGTSTYYADSVKGRFTISRDNAKNTVYLQMNSLKPEDTAVYYCNAAGYWPATGDYWGQGTQVTVSW,high polyreactivity
5,QVQLVESGGGLVQAGGSLRLSCAASGSTFPYYGMGWYRQAPGKERELVAAINSGGSTYYADSVKGRFTISRDNAKNTVYLQMNSLKPEDTAVYYCNAAYPEWYAYDYWGQGTQVTVSS,low polyreactivity
6,QVQLVESGAGIVQAGGSLRLSCAASGLTFKVYAMGWYRQAPGKERELVAAISWSGGSTYYADSVKGRFTISRDNAKNTGYLQRNSLKPEDTAVYYCAVEPSYYVVFFQYDYWGQGTQVTVSS,low polyreactivity
7,QDQLVESGGCLVQAGGSLRLSCAASRFTFSPYTMGWYRQAPGKERELVATIRYDGTSTYYADSVKGRFTISRDNAKNTVYLQMNSLKPEDTAVYYCNADPGYYDYDYWGEGTQVTVSS,low polyreactivity
8,QFQLVESGGGLVQAGGSLRLICAASGFIFWYNAMGWYRQSPGKEREFVAAISSGGSTTYADSVKGRFTISRDNALITVYLQMNSLKPEDTAVYYCAAGSYDYDYWGQGTQVTVSS,low polyreactivity
9,QVQLVESGGGLVQAGGSLPLSCAASGATFTFYTMRSYRQAPGKERELVATISWRGGNTYYADSVKGRFTISRDNAKNTVYLQMNSLKPEDTAVYYCNAAPYRRGYGFREYDYWGQGTQVTVSS,high polyreactivity
10,QVQLVESGGGLVQAGGSLRLSSAGSGRIFQPYAMGWYRQAPGKERELVAAITRRAGSTYYADSVKGRFTISRDNAKNTVYLQMNSLKPEDTAVYYWAARGLYWAYEMEDWGQGTQVTVSS,low polyreactivity
11,QVQLVESGGGLVQAGGSLRLSCAASGSTCDYYAMGWYRQAPGKEREIVAAITTGGDTTNYADSVKGRFTISRDNAKNTVYLQMNSLKPEVTAVYYCARDTGYDLIVLPDDSWGQGTQVTVSS,low polyreactivity
12,QVQLVESGGGIVQAGGSLRLSCAASGGTFNRYAMGWYRQAPGKERELVAAISNGGGRTYYADSVKGRFTISRDNAKNTVYLQMNSLKPEDNSVYYCAKDLTRTSYRSAFDYWGQGTQVTVSS,high polyreactivity
13,QVHLVESGGGLVQAGGSLRLSCAASGFTFIRYAMGWYRQAPGKETELVAAISVSGGRTYYADSVKGRFTISRDNAKNTVYLQMNSLKPEDTAVYYCARRPSYYQGDYWGQGTQVTVSS,high polyreactivity
14,QVQLVESGGGLVQAGGSLRLSCAASGSTFPFNAMGWYRQAPGKERELVAGIRSRGGSTYYADSVKGRFTISRDNAKNTVYLQMNSLIPEDTAVSSCAKVYKDRDDLFYYWGQGTQVTVSS,low polyreactivity
15,QVQLVESGGGLVQAGGSLGLSCAAYGSTFRYYAMGWYRQAPGKERELVAAISSAGNTYYADSVKGRFTISRDNAKNTVYLQMNSLKPEDTAVYYCAAKYSYYTYAGDGGLFSCSYGYWGQGTQVTVSS,low polyreactivity
16,QVQLVESGGGLVQAGGSLRLSCAASGITFTIYGMGWYRQATGKERELVAVISRRGGSTYYADSVKGRFTISRDNAKNTVYLQMNSLKPEDTAFYYCNTRTQGAKQYTGYDYWGQGTQVTVSS,high polyreactivity
17,QVQLHESGGGLVQVGGSQRLSCAASGNIFYNYAMGWYRHAQGKEREFDATINHGTSINYADSVKGRFTISRDNAKNTVYLQMNSLKPEDTAVYYCAADLSWTDNLFYWGQGTQVTVSS,low polyreactivity
18,QVQLVESGGGLVQAGGSLRLTCAASGNIFVGNDMGWYRQAPGKERELVAAISSGDTTSYADSVKGRFTISRDNAKNTVYLKMNSLKPEETAVYYCAVDRSLSPFAYDYWGQGTQVTVSS,low polyreactivity
19,QVQLVESGGGLVQAGGSLRLSCAASGSTFRVYAMGWYRQAPGKERELVAGITQTSGRTYYADSVKGRFTISRDNAKNTVYLQMNSLKPEDTAVYYCARESYSSYFHYYYWGQGTQVTVSS,high polyreactivity
20,QVQLVESGGGLVQAGGSLRLSCAASGIIFDTNAMGWYRPAPGKERELVAAITRSGGGTYYADSVKGRFSISRDNAKNTVYLQMNSLKPDDTAVYYCAARRQRDRYGYWGQGTQLTVSS,high polyreactivity
21,QVQLVESGGGLVQAGGSLRLSCAASGRTFPSYAMGWYRQSPGKERELVAAITVSGGNTYYADSVKGRFTISRDNAKNTVYLQMNSLKPEDTAVYYCNTASYVSWYVHYYYWGQGTQVTVSS,low polyreactivity
22,QVQLVESGGGLVQAGGRLRLSCAASGIIFPRYAMGWYRQAPGKERELVAAISGSGVGTYYADSVKGRFTISRDYAKNTVYIQMNSLKPEDTAVYSCATRYQWGGPYYRYDYWGQGTQVTVSS,high polyreactivity

row,Sequence,polyreactivity (PSR sort gate)
1,QVQLVESGVGLVQAGGSLRLSCAASGRTFFGYAMGWYRQAPGKEREFVARISWRGTSTTYADSVKGRFTISRDNAKNTVYLQMNSLKPEDTAVYYCAASQYGLRVYFTVGYWGQGTQVTVSS,high polyreactivity
2,QVHLVESGGGEVQAGGSLRLSCAASGRTFYNYAMGWYRQAPGKERELVASIRKNGGSTYYAYSVKGRFSISRDNAKNTVYLQMNSLKPEDTAVYYFAARYWGISRIFPSKYDYWGQGTQVTVSS,high polyreactivity
3,QVQLVESGGGLVQAGGSLRLSCAASGSIIWYYAMVWYRQAPGIERELGAAMTGTGGNTYYADSVKGRFTLSRDNAKNTVYLQMNSLKPEDTAVYYCDVRAYPSYPRGVYAYYYWGHGTQVTVSS,high polyreactivity
4,QVQLVESGGGLVQAGGSLRLSCAASGFTFTYYTMGWYRQAPGKERELVAAISWSGSSTYYADSVKGRFTISRDNAKNTVYLQMNSLKPEDTAVYYCAAKYRGKYYYWGQGTQVTVSS,high polyreactivity
5,QVQLQDSGGGLVQAGGSLGLSCAASGYIFGSGSMGWFRQAPGKERELVATINNGSSTYYADSVKGRFTISRDNSKNTVSLQMNSLKPEDTAVYYCAVYLYRLTFFYYWGQGNQVTVSS,high polyreactivity
6,QVKLVESGGGLVQAGVSLRLSCAASGRIFVFYAMGWYRQAPGKERELVAAITASSTRTYYADSVKGRFTISRAHAKNTVYLQMNSLKPEDTAVYYCARDIRQYILYGRGDYWGQGTQVTVSS,low polyreactivity
7,QVELVESGGGLVQPGGRLRLSCAASGFTFNYYAMGWYRQAPGKEREFVAAISRGGGRTYYADSVKGRFTISRDNAKNTVYLQMNSLKPEDTAVYYCAAQSVPYAYRLASYDYWGQGTQVTVSS,high polyreactivity
8,QVQLVESCGGLVQAGGSLRLSCAASGSTLYYYAMGWYRQAPGKERELVASISWSGGRTYYADSVKGRFTISRDNAKYTVYLQMNSLKPEDTAVYYCNAVPYRGYDYWGQGTQVTVSS,low polyreactivity
9,QVQLVESGGGLVQAGGSLRLSCAASGSTFNGYAMGWSRQAPGKERELVAAISWSSGSTYYADSVKGRFTISRDNAKNTVYLQMNSLKPEDTAVYYCNKYYGYHKIKEYDYWGQGTQVTVSS,high polyreactivity
10,QVQLVESGGGLVQAGGSLRLSCAASGLTFYWNAMGWYRQAPGKERELVASISQSSGNTYYADSVKGRFSISRDNAKNTVYLQMNSLKPEDTAVYYCAARNRPSLNRYYYWGQGTQVNVSS,low polyreactivity
11,QVQLVESGGGLVQAGGSLRLSCAASGFTFYRYVMGWYRQAPGTERELVAAITGGGRTYYADSVKGRFTISRDNAKNTVYLQMNSLKPEDTAVYYCNKAVPAWGLFDYWGQGTQVTVSS,low polyreactivity
12,QVHLVESGGGLVQAGGSLRLSCAASGRTFFQYAMGWYTQAPGKERELVAAIRWSDSTYYADSVKGRFTISRDNAKNTVYLQMNSLKPEDTAVYYCAKTYRYYRTMDYWGQGTQVTVSS,low polyreactivity
13,QFQLVESGGGLVQAGGSLRLSSAASGFTFVYYVMGWYRQAPGKERELVAAINAGGGSTYYADSVKGRITISRDNAKNTVYLQMYSLKPEDTAVYSFNARVRVRWGRNWSSYYYWGQGTQVTVSS,high polyreactivity
14,QVQLVDSGGGLVQAGGSLRLTCAASGIIIPVYAMGWYRQAPGKERELVAAISSGGSTYYADSVKGRFTISRDNAKNTVYLQINSLKPEDTAVYYCAARKVRYPYRWYDYWGQGTQVTVSS,high polyreactivity
15,QVQLVESGGGLVQAGGSLRLSCAASGITFCYYVMGWYRQAPGKERELVAAISSGSSTYYADSVKGRFTISRDNAKNTVYLQMNSLKPEDTAVYYCAAESVYWLEFRYYYWGQGTQVTVSS,low polyreactivity
16,QVQLVESGGGLVQAGGSLRLSCAASGITFWRYAMGWYRQAPGKERELVAAIDWSGGDTYYADSVKGRFTISRDNAKNTVYLQMNRLKPEDTAVYYCATDRYAYKLYDYWGQGTQVTVSS,low polyreactivity
17,QVQLVESGGGLVQAGGSLRLSCAASGSIFPHYAMGWSRQAPGKEREFVATISGSTGRTYYADSVKGRFTISRDNAKNTVYLQMNSLKPEDTAVYYCATSVGYYLPPIKYDYWGQGTQVTVSS,low polyreactivity
18,QVQLGESGGGLVQAGGSLRLSCASSGRTFVVNAMGWYSQAPGKATEFDAAISYRGDSTYYAVSVKGRFTISRDNAKNTVYLQMNSLKPEATAVYYCAARVLGPGRRYYYWGQCTQVTVSS,high polyreactivity
19,QVQLVESGGGLVPAGASLRLSCAASGSTSYVYAMGWYRKAPGKERELVAAISGSGGRTYYADSVKGRFTISRDNAKNTVYLQMNSLKPEDTAVYYCNAMPRPSYPFDYWGQGTQVTVSS,high polyreactivity
20,QVQLVESGGGLVQAGGSLRLSCAASGSTFTPYTMGWYRKAPGKETELVAAIRYGGGSTYYADSVKGRFTISRDNAKNTVYLQMNSLKPEDTAVYYCAVDSFYSGGTYDSDGYWGQGTQVTVSS,low polyreactivity
21,QVQLVESGGGLVQAGGSLRLSCAASGSIFDRYAMGWYIQAPGKERELVASITWRATSTYYADSVKGRFTISRDNAKNTVYLQMNSLKPEDTAVYYCAADVPWGWWDSDFSDNYYWGQGTQVTVSS,low polyreactivity
